Experimental data taken from publication doi:10.1101/2021.05.06.441046.

Target: VFLIP_D614G spike with Foldon and purification tags enzymatically removed (SARS-CoV-2) (UniProt P0DTC2)
Assay: cryo-EM structure

With “HLX70 Fab (Fab from HLX70, a humanized pan-coronavirus mAb)” the stoichiometry N was 3 Fab:spike.
